Measurements taken from patent publication US5595877, “Methods of producing nucleic acid ligands” (NeXstar Pharmaceuticals, Inc.).

Target: HIV-1 reverse transcriptase (HIV-RT) (HIV-1, UniProt P04585;P04585 P04585:588-1147,P04585:588-1027)
Test: footprint; chemical modification protection and modification interference; 200 mM KOAc, 50 mM Tris-HCl pH 7.7, 37 C
Conditions: pseudoknot
Description: Affinity assays with labeled RNA and HIV-RT. Model RNAs for refinement of the 5' and 3' boundaries and for determination of the effect of substitutions were labeled during transcription with T7 RNA polymerase as described in Tuerk et al. (1990) except that a-32P-ATP was used, in reactions of 0.5 mM C,G, and UTP with 0.05 mM ATP. Synthetic oligonucleotides and phosphatased transcripts (as in Tuerk et al., 1990) were kinased as described in Gauss et al. (1987). All RNA-protein binding reactions were done in a "binding buffer" of 200 mM KOAc, 50 mM Tris-HCl pH 7.7, 10 mM dithiothreitol with exceptions noted for chemical protection experiments below. RNA and protein dilutions were mixed and stored on ice for 30 minutes then transferred to 37° C. for 5 minutes. […] Each reaction was suctioned through a pre-wet (with binding buffer) nitrocellulose filter and rinsed with 3 mls of binding buffer after which it was dried and counted for assays or subjected to elution and assayed for chemical modification. In comparisons of binding affinity, results were plotted and the protein concentration at which half-maximal binding occurred (the approximate Kd in conditions of protein excess) was determined graphically.
Selection of modified RNAs by HIV-RT. […] The extent of modification interference by ENU was determined by densitometric scanning of films using an LKB laser densitomer.

B1: lengthened ligand B RNA (ssRNA)
RNA: GGUCCGAAGUGCAACGGGAAAAUGCACUAUGAAAGAAUUUUAUAUCUCUAUUGAAAC
- binding result: binds
